Data reported in the supplement of paper PMC9732359.
± gives the uncertainty stated by the source.

Experiment: protein stability index of a GFP-peptide fusion (yeast GPS) (PSI 1-4); higher = more stable; sorted into four equal gates, so the index is relative within each strain
In short: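 Yeast carrying a pooled library were grown to mid-log phase in leucine-free medium. Each library plasmid expresses Cherry and has a tiled 17-residue yeast protein peptide fused downstream of GFP. Cells were sorted into four equal gates by GFP/Cherry ratio, and plasmids from each gate were PCR-amplified, Illumina-sequenced and assigned to strains by barcode. Summing, across gates, the read frequency times the gate number gave each peptide's protein stability index.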

Sequence	protein stability index (doa10∆)	protein stability index (pdr5∆)	protein stability index (san1∆)	protein stability index (ubr1∆)
VISLGPNLATFISSGTS [YJL039C/NUP192]	2.33 ± 0.061	2.64 ± 0.065	2.36 ± 0.073	2.3 ± 0.046
KEKIKGLQDEIMKIGGI [SMC4]	3 ± 0.09	3.19 ± 0.055	3.17 ± 0.049	3.36 ± 0.063
LLSDVNQNQRNVNETMS [SMC3]	3.06 ± 0.12	2.89 ± 0.054	3.04 ± 0.062	3.01 ± 0.082
RDRTSGQKLLAIKYGYE [SRB4]	2.9 ± 0.15	3.17 ± 0.11	3.11 ± 0.084	3.23 ± 0.096
LPFQRLVREIAQDFKTD [HHT1]	1.93 ± 0.066	2.48 ± 0.061	2.48 ± 0.073	2.35 ± 0.074
PQQAQMQQAQFQAQQAQ [SNF2]	2.94 ± 0.062	3.04 ± 0.058	2.99 ± 0.055	3.1 ± 0.041
LGHPDNYIPGNPLVTPA [COB]	2.49 ± 0.11	3.07 ± 0.13	2.93 ± 0.075	2.93 ± 0.068
VVTRSKEAFEEEIKQSA [SMC1]	3.05 ± 0.14	3.07 ± 0.13	3.11 ± 0.25	3.1 ± 0.089
IQRTRERKKSIGSQRGR [DSN1]	2.94 ± 0.077	2.5 ± 0.063	2.56 ± 0.061	2.91 ± 0.069
RRMAFKPFGSAKSDETK [YLR335W/NUP2]	2.75 ± 0.073	2.74 ± 0.063	2.88 ± 0.058	2.08 ± 0.054
KTDLELLVERLKEDDSS [RPN1]	3.18 ± 0.11	3.3 ± 0.14	3.05 ± 0.1	3.18 ± 0.17
PSRIFYKALRGMVSHKT [RPL16A]	2.32 ± 0.1	1.27 ± 0.075	2.44 ± 0.14	1.82 ± 0.13
LYFYRDPEEVEQQVAEE [RPS0A]	3.31 ± 0.087	3.31 ± 0.095	3.1 ± 0.082	3.56 ± 0.076
EELRGQQTEHETEIKDL [SMC4]	3.34 ± 0.13	3.43 ± 0.094	3.48 ± 0.067	3.37 ± 0.053
GCIKIYSSRVDSVTTET [BRN1]	2.43 ± 0.14	2.52 ± 0.13	2.35 ± 0.21	2.12 ± 0.17
HGGKMKPEIDENGTLLV [RPR2]	3.16 ± 0.078	3.14 ± 0.11	3.05 ± 0.075	2.97 ± 0.047
YIHRIGRTGRAANEGTA [PRP28]	3.1 ± 0.11	3.29 ± 0.1	3.26 ± 0.053	3.29 ± 0.071
AKETHTKPSETPATIVK [YOR098C/NUP1]	3.28 ± 0.092	3.17 ± 0.066	2.87 ± 0.064	3.12 ± 0.066
SIMVELKLPLEINYAFS [SIR3]	1.31 ± 0.077	1.64 ± 0.064	1.55 ± 0.12	1.5 ± 0.058
SSVFLPSRKDCMEVASA [BRR2]	2.73 ± 0.063	3.4 ± 0.077	3.33 ± 0.066	3.19 ± 0.059
LLERYIGNLITRQFEGR [PRP8]	2.59 ± 0.11	2.63 ± 0.18	2.43 ± 0.15	1.99 ± 0.071
ALAFCEIGITQQRIVSA [RRP4]	1.71 ± 0.11	2.31 ± 0.11	1.92 ± 0.23	2.25 ± 0.075
ASVRIKDKFNQIPLHRA [NAS6]	2.55 ± 0.095	2.68 ± 0.12	2.91 ± 0.14	3.17 ± 0.055
PGIMLRQMNLVITLLNN [YCS4]	1.2 ± 0.06	1.11 ± 0.042	1.14 ± 0.13	1.19 ± 0.041
ETEFPPFREFLQVLIDQ [ECM29]	3.46 ± 0.19	3.45 ± 0.16	3.2 ± 0.095	3.27 ± 0.12
ADDVFTGTGLQDENIGL [RPC31]	3.46 ± 0.11	3.44 ± 0.096	3.21 ± 0.057	3.33 ± 0.07
RNEQVTIELKNGTTVWG [SMD1]	1.23 ± 0.099	1.78 ± 0.11	1.49 ± 0.24	1.16 ± 0.094

Sequence	protein stability index (doa10∆)	protein stability index (pdr5∆)	protein stability index (san1∆)	protein stability index (ubr1∆)
WRFHTPQKYVLHPQLHE [SIN4]	2.17 ± 0.071	2.11 ± 0.069	1.78 ± 0.13	1.97 ± 0.057
FRVNNASINTSATVKTS [ECM29]			1.95 ± 0.17	
GQNCLDIDGIMDNPRKL [SNU114]		3.43 ± 0.27	3.4 ± 0.092	3.81 ± 0.27
TIFKYLTDKDAFETHYR [CDC53]	3.27 ± 0.11	3.12 ± 0.086	3.09 ± 0.049	2.98 ± 0.061
GRAGVPMEVMGLMLGEF [RPN11]	1.25 ± 0.17	2.12 ± 0.26	1.69 ± 0.18	
MDMNEIEDKENSESTTQ [RPT5]	3.04 ± 0.15	3.25 ± 0.12	3.16 ± 0.12	3.21 ± 0.098
NVDVCVMEIGKDAEYLR [PUP1]	2.84 ± 0.068	2.73 ± 0.063	2.7 ± 0.066	2.39 ± 0.051
EIFDVTSNGLKKNPNWL [FAS1]	3.54 ± 0.16	3.46 ± 0.11	2.64 ± 0.18	3.37 ± 0.06
KSKKSWLNRLNNWLFGW [YMR153W/NUP53]	2.81 ± 0.054	2.66 ± 0.046	2.51 ± 0.053	2.94 ± 0.041
VSVRKHLERNRKDKDAK [RPS13]	3.38 ± 0.16	3.31 ± 0.095		3.28 ± 0.099
TLNPDLFLYKELVKAHL [RPC82]	2.71 ± 0.079	2.87 ± 0.074	2.95 ± 0.053	2.42 ± 0.055
LLDNEIRIFRSELQRLS [RPT5]	2.4 ± 0.26		3.09 ± 0.076	3.03 ± 0.21
ALPRKLRRRTASHNVRR [POP1]	2.91 ± 0.058	3.06 ± 0.06	2.79 ± 0.056	2.74 ± 0.039
KFANQLHDEYLVSMRYP [RPN3]	2.35 ± 0.098	2.9 ± 0.07	2.43 ± 0.081	2.76 ± 0.074
SKKGSLENNIREFPEYF [RPL10]	2.95 ± 0.12	3.23 ± 0.084	3.29 ± 0.057	3.36 ± 0.069
LPKAWISLAVEGEPVNS [COR1]	1.38 ± 0.12	2.1 ± 0.14	2.84 ± 0.14	1.79 ± 0.1
IVAALPISEKGLTLSTT [RPP1]	2.11 ± 0.087	2.61 ± 0.063	2.65 ± 0.057	2.48 ± 0.094
LIKAKNFLVFQGDVEQI [SMC1]	2.63 ± 0.19	3.15 ± 0.12	2.41 ± 0.17	2.76 ± 0.23
GLDQSRIPFSERKLKFS [FAS1]	1.81 ± 0.061	1.29 ± 0.059	1.11 ± 0.085	1.12 ± 0.048
SVKESTGMSSMSPFLRK [SRB4]	3.42 ± 0.14	2.6 ± 0.23	2.1 ± 0.25	3.15 ± 0.079
SVKSARTSTRGRGRGRG [SNF2]	3.38 ± 0.065	3.35 ± 0.064	3.19 ± 0.046	3.32 ± 0.041
KTDPAGYYVGYKATATG [SCL1]	2.98 ± 0.08	3.24 ± 0.065	3.21 ± 0.065	3.25 ± 0.1
IEDKENSESTTQGGNVN [RPT5]	3.59 ± 0.14	3.31 ± 0.14	3.46 ± 0.17	3.6 ± 0.11
GYIKNNKKIYQWNKLTS [POP6]	2.93 ± 0.085	2.91 ± 0.089	2.89 ± 0.072	3.06 ± 0.081
MPKKRASNGRNKKGRGH [RPS26A]	3.3 ± 0.17	3.43 ± 0.19	2.82 ± 0.24	3.5 ± 0.083
PGTVLILLAGRFRGKRV [RPL6A]	1.61 ± 0.066	1.83 ± 0.069	1.66 ± 0.11	2.19 ± 0.073
